Bridge positions count the residues as written; N and C are the ends. Square brackets hold non-standard residues; d marks the D form. Ends that are not written are not given here. S5 = C=CCCC[C@](C)(N)C(=O)O
Biological target: T1, MCAD (Mus musculus, UniProt P45952)
T1 construct: endogenous in cells; host or cells: wild-type mouse embryonic fibroblasts (lysate)
T1 sequence (P45952 26-421): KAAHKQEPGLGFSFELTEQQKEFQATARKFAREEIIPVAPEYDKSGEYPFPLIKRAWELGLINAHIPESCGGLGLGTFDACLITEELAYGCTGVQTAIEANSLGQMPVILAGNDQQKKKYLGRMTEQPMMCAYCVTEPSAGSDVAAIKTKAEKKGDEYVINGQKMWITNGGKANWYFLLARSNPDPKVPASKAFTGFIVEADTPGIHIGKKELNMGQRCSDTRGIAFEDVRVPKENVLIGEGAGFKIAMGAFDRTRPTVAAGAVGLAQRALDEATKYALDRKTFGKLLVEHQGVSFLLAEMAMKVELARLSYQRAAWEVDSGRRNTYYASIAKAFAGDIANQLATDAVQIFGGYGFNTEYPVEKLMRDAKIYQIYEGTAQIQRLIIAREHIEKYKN
Experiment: Biotinylated SAHB pulldown from MEF lysates, MCAD Western analysis
Assay type: binding
Details: wild-type MEF lysates
Source text: To validate the MS result, the pulldowns were repeated and eluates run on a gel for anti-VLCAD Western blot analysis. […] All peptides faithfully recapitulated native BH3-binding propensities for endogenous MCL-1 protein (FIG. 8). The eluates were then probed for the other members of the acyl-CoA dehydrogenase family that manifest shorter fatty acid substrate specificities. MCL-1 SAHBD was able to pull down VLCAD, but not MCAD or SCAD (FIG. 9). Because the traditional MCL-1 staple location differs from that of the BIM, BID, and BAD SAHBs, it was important to confirm that the observed VLCAD binding specificity was due to BH3 sequence selectivity, not staple position. A BIM SAHB with the traditional MCL-1 staple (BIM SAHBF), and a MCL-1 stapled peptide with the traditional BIM staple (MCL-1 SAHBA), were generated. […]
Wild-type MEFs were trypsinized, washed once with cold PBS, and lysed on ice with NP-40 lysis buffer (50 mM Tris, pH 7.4, 150 mM NaCl, 0.5% (v/v) NP-40, complete protease inhibitor pellet (Roche)) using 1 ml of lysis buffer for every 10 million cells lysed. Cellular debris was pelleted at 14,000 g for 10 min at 4° C., and the supernatant was quantified using the BCA Protein Assay Kit (Thermo Fisher Scientific). […]

Substance: MCL-1 SAHBD: hydrocarbon-stapled peptide mimicking the MCL-1 BH3 domain (Stabilized Alpha-Helix of BCL-2 Domain), SEQ ID NO:19 (RKALETLRRVGDGV[S5]RNH[S5]TAF; staple 15-19)
- pull down of MCAD from cellular lysates: not
